Four substances from doi:10.1101/2021.04.02.438172 can be followed below.

In assay [1] the target is Sandercyanin His-108-Ala (Stizostedion vitreum (formerly Sander vitreus), walleye).
The target of assay [2] is Sandercyanin Phe-106-Ala (Stizostedion vitreum (formerly Sander vitreus), walleye).
The target in assay [3] is Sandercyanin Tyr-142-Ala (Y142A) (Stizostedion vitreum (formerly Sander vitreus), walleye).
Assay [4] deals with wild-type Sandercyanin (Stizostedion vitreum (formerly Sander vitreus), walleye). Description: SEC.

Regarding “Sandercyanin His-108-Ala (natural protein)”, the stoichiometry N (as a rule, the number of molecules, sites or subunits per partner or assembly) in assay [1] turned out to be 4. Substance “Sandercyanin Phe-106-Ala (natural protein)” showed a stoichiometry N in assay [2] of 4. Take “Sandercyanin Tyr-142-Ala (Y142A) (natural protein)”: the stoichiometry N in assay [3] worked out at 4. “wild-type Sandercyanin (natural protein)” had a stoichiometry N in assay [4] of 4.
